The text below walks through data of patent publication US20030229203.

Some targets named below: IP-10 (UniProt P02778); Eotaxin (UniProt P51671); MCP-1 (UniProt P13500); RANTES(1-68) (UniProt P13501); MCP-2 (UniProt P80075).

Sequence of MCP-2 (P80075 24-99): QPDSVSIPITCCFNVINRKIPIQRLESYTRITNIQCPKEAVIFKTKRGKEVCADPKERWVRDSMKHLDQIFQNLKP
Sequence of RANTES(1-68) (P13501 24-91): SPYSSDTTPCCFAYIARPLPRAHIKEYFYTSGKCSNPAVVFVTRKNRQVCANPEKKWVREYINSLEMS
Sequence of Eotaxin (P51671 24-97): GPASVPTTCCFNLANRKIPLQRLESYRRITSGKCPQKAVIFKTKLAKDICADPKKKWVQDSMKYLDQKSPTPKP
Sequence of IP-10 (P02778 whole entry, looked up): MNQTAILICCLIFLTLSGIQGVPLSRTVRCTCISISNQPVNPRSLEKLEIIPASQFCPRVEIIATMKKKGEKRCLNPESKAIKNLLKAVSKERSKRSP
Sequence of MCP-1 (P13500 whole entry, looked up): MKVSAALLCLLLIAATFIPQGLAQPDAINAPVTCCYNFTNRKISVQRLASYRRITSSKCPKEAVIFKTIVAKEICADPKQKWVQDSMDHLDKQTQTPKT

In the case of “enzymatically active (E+) recombinant soluble human CD26 (sCD26)”, the “CD26 cleavage (ES-MS after overnight digestion with sCD26)” value with IP-10 is given as “Yes”; with Eotaxin it was “Yes”; in the data set with MCP-1, “No”; with MCP-2, “Yes”. Further, the “hydrolysis of rhRANTES by sCD26 (ES-MS of cleavage products)” value with RANTES(1-68) is 100 nM rhRANTES underwent partial to complete hydrolysis when incubated overnight at 37 °C with increasing amounts (25 to 250 (U) of sCD26.
